We go through three molecules from US20230357429A1 (JANUX THERAPEUTICS, published 2023).

The target of one assay is T1, Peptide-30 (cysteine pairing not given here; also: biotinylated, site not given here).
T1 peptide: TSLICFRNVYCWNV
Nature of the assay: ELISA, Fab on captured biotin-peptide.

The next assay concerns the target T2, Peptide-11 (cysteine pairing not given here; also: biotinylated (site not given here)).
T2 peptide: VDFCALYNWPVCET
Nature of the assay: ELISA: biotinylated peptide captured on neutravidin plate, Fab titrated, HRP secondary antibody. (In general: ELISA stands for enzyme-linked immunosorbent assay.)

The next assay addresses T3, Peptide-15 (cysteine pairing not given here; also: biotinylated (site not given here)).
T3 peptide: LDFCKLYQWPVCFT
The assay is described as above.

The target in a further assay is T4, Peptide-16 (cysteine pairing not given here; also: biotinylated (site not given here)).
T4 peptide: IDFCLLYDWPVCAS
Described as above.

For the next assay, the target named is T5, Peptide-24 (cysteine pairing not given here; also: biotinylated (site not given here)).
T5 peptide: SVLFCVKNLYCWVT
The description is as above.

In a further assay the target is T6, Peptide-19 (cysteine pairing not given here; also: biotinylated (site not given here)).
T6 peptide: PDFCQLYNWPVCAG
The description is as above.

The target in another assay is T7, Peptide-21 (cysteine pairing not given here; also: biotinylated (site not given here)).
T7 peptide: IDFCSLYQWPVCGT
The assay is described as above.

A further assay addresses T8, Peptide-22 (cysteine pairing not given here; also: biotinylated (site not given here)).
T8 peptide: VDFCTIYKWPVCEG
The description is as above.

Assay [1] deals with T9, Human TROP2 ECD (31-274 AA), biotinylated (human, UniProt P09758 31-274, biotinylated (site not stated)).
T9 construct: captured on neutravidin plates; also called TROP2-biotin; Trop2-biotin
T9 sequence: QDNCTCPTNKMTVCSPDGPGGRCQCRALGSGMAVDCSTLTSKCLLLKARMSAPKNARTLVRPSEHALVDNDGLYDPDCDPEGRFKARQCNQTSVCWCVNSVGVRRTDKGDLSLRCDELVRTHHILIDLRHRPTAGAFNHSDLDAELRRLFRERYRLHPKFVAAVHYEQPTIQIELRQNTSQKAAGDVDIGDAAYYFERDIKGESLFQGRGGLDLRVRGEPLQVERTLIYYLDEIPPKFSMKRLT
Nature of the assay: ELISA, Fab on captured biotin-TROP2.

The target of the next assay is T10, Peptide-44 (cysteine pairing not given here; also: biotinylated, site not given here).
T10 peptide: VEFCKQWTWFGCMT
Nature of the assay: ELISA, Fab on captured biotin-peptide.

Another assay deals with T11, Peptide-58 (cysteine pairing not given here; also: biotinylated, site not given here).
T11 peptide: VEICKQWFYTVCLS
As to the kind of experiment: ELISA, Fab on captured biotin-peptide.

Assay [2] deals with T12, Peptide-25 (cysteine pairing not given here; also: biotinylated (site not given here)).
T12 peptide: VDFCKIYSWPVCHQ
As to the kind of experiment: ELISA, Fab on captured biotin-peptide; Table 18 peptide set (separate ELISA run).

The target of assay [3] is T12, Peptide-25. As to the kind of experiment: ELISA, Fab on captured biotin-peptide; Table 19 peptide set (separate ELISA run).
The target of the next assay is T13, Peptide-29 (cysteine pairing not given here; also: biotinylated, site not given here).
T13 peptide: SYLVCVKNVYCWTA
As to the kind of experiment: ELISA: biotinylated peptide captured on neutravidin plate, Fab titrated, HRP secondary antibody.

Where no end group is shown, it is not given here.

The term EC50 denotes the concentration needed to bring the measured effect to its halfway point.

B1: TBD-1 wt (Fab, V domains shown)
VH: QVQLQQSGSELKKPGASVKVSCKASGYTFTNYGMNWVKQAPGQGLKWMGWINTYTGEPTYTDDFKGRFAFSLDTSVSTAYLQISSLKADDTAVYFCARGGFGSSYWYFDVWGQGSLVTVSS
VL: DIQLTQSPSSLSASVGDRVSITCKASQDVSIAVAWYQQKPGKAPKLLIYSASYRYTGVPDRFSGSGSGTDFTLTISSLQPEDFAVYYCQQHYITPLTFGAGTKVEIKR
notes: Fab; the heavy chain entry is VH-CH1; also called wild-type anti-TROP2 Fab (hRS7); TROP2 Fab
In the assay with Peptide-30, B1 had an EC50 of 9.1 nM. In addition, the binding result with Peptide-11, with Peptide-15, with Peptide-16, with Peptide-24, with Peptide-19 and in the assay with Peptide-21 was “binds” throughout. Also, in the assay with Peptide-22, the binding result is on record as “binds”.

B2: TBD-6 (LC I93A) (Fab, V domains shown)
VH: QVQLQQSGSELKKPGASVKVSCKASGYTFTNYGMNWVKQAPGQGLKWMGWINTYTGEPTYTDDFKGRFAFSLDTSVSTAYLQISSLKADDTAVYFCARGGFGSSYWYFDVWGQGSLVTVSS
VL: DIQLTQSPSSLSASVGDRVSITCKASQDVSIAVAWYQQKPGKAPKLLIYSASYRYTGVPDRFSGSGSGTDFTLTISSLQPEDFAVYYCQQHYATPLTFGAGTKVEIKR
notes: Fab; also called LC I93A mutant
In assay [1], B2 returned an EC50 of 0.3 nM.

B3: TBD-11 (HC R98A) (Fab, V domains shown)
VH: QVQLQQSGSELKKPGASVKVSCKASGYTFTNYGMNWVKQAPGQGLKWMGWINTYTGEPTYTDDFKGRFAFSLDTSVSTAYLQISSLKADDTAVYFCAAGGFGSSYWYFDVWGQGSLVTVSS
VL: DIQLTQSPSSLSASVGDRVSITCKASQDVSIAVAWYQQKPGKAPKLLIYSASYRYTGVPDRFSGSGSGTDFTLTISSLQPEDFAVYYCQQHYITPLTFGAGTKVEIKR
notes: Fab; also called HC R98A mutant
Consider B3, for which the EC50 in assay [1] is 3.4 nM; with Peptide-44, 112 nM; with Peptide-58 it was 10.7 nM; in the assay with Peptide-25 [2], 1000 nM; with Peptide-25 [3], 453 nM. In the assay with Peptide-29, the binding result was “binds”.
